Results as given in article PMC8769338 (PLoS Pathogens, 2022).
“And” between values parts separate entries of the source, which are not always exact repeats. Equal values may be shown once.

Columns and labels:
Details in all cases: both partners purified
[1] = molecular target: LC/A1 (light chain protease domain of BoNT/A1), as used in the ELISAs of Table 1 (Clostridium botulinum, BoNT/A1, UniProt P0DPI0); test: ELISA
[2] = molecular target: T1, LC/B1 (light chain protease domain of BoNT/B1), as used in the ELISAs of Table 2 (Clostridium botulinum, BoNT/B1, UniProt P10844); test: ELISA
[3] = molecular target: T1, LC/B1 (light chain protease domain of …); test: ELISA; dilution ELISA of VHH on LC/B coated to Nunc plastic
[4] = molecular target: LC/A2, strep-tag fusion protein (Clostridium botulinum, BoNT/A2 (strain …, UniProt Q45894, strain)); test: ELISA

Binder	EC50 [2]	further results
ciA-D1 (VHH, source: pET-32 vector, thioredoxin fusion, purified) VHH: QVQLVESGGGLVQPGGSLRLSCATSGFTLEYYAIGWFRQAPGKGREGVACMNSSGGGTNYADSVKGRFTISRDNAKKMVYLQMNSLKSEDTAVYYCVVDDFRCGSRWAAYLRSSWGQGTQVTVSS		EC50 [1]: 1 nM and 0.4 nM
BLc-B10 (VHH, source: pET-32 vector, thioredoxin fusion, purified) VHH: QLQLVESGGGMVQPGGSLRLSCAASGFTFSTYDMSWVRQAPGKGPEWVSIINAGGGSTYYAASVKGRFAISRDNAKNTLYLQMNNLKPEDTALYYCARVASYYCRGYVCSPPEFDYWGQGTQVTVSS	5 nM and 10 nM	EC50 [3]: 0.3 nM
JND-E9 (VHH, source: pET-32 vector, thioredoxin fusion, purified) VHH: QVQLVETGGGLVQAGDSLRLSCAASGRTFNYYAMAWFRQAPGKEREFVAFINWSGDSTYYAGSVKGRFTISRDNAKNTVYLQMNNLKPEDTAVYSCAAEFGTFSYLQGDDYSYWGQGTQVTVSS	1 nM and 0.5 nM	
JPU-C10 (VHH, form of the ELISAs; source: pET-32 vector, thioredoxin fusion, purified) VHH: QLQLVESGGGLVQPGGSLRLSCAASGNIFSIYYMGWYRQAPGKQREMVAIINSNGITNYGDFVKGRFTISRDNAENSAYLQMNNLTPEDTAVYYCNAGKLRRTTGWGLDDYWGQGTQVTVSS		binding result [4]: binds
JPU-A5 (VHH, form of the ELISAs; source: pET-32 vector, thioredoxin fusion, purified) VHH: QVQLVETGGGLVQAGGSLRLSCTASGADFSFYAMGWYRQTPGNSRELVAVMNLNGVISYGDSARGRFDISRDGTKNIVFLQMNSLKPEDTGVYYCNGMRLYTRGSVRHPESWGQGIQVTVSS		binding result [4]: binds
JND-E5 (VHH, source: pET-32 vector, thioredoxin fusion, purified) VHH: QVQLVESGGLVQPGGSLRLSCAASGFTLDYYGIGWVRQAPGKEREEVSCITSGGLTNYPDSVKGRFTISRDNAKNTVYLQMNSLKPEDTAVYYCAIDRVGVCAMEDFGSWGQGTQVTVSS	5 nM and 2 nM	
JND-B4 (VHH, source: pET-32 vector, thioredoxin fusion, purified) VHH: QVQLVETGGGLVQPGGSLRLSCVASGFTLDSYAIGWFRQAPGKEREGVSCMSSGDGSTYYTNSVKGRFTISRDNAQNTVYLQMNSLKPEDTAVYYCAADGFDYCSAYVPGRGMNYSGKGTLVTVSS	0.8 nM and 0.5 nM	
JLO-G7 (VHH, source: pET-32 vector, thioredoxin fusion, purified) VHH: QVQLVESGGGLVQAGGSLRLSCAASGFPFGSYYMSWVRQAPGKGPEWVSDISNGGIITRYSDSVKGRFTISRDNAKNILYLQMNSLKPEDTALYFCATGTGRDWSREYRGQGTQVTVSS	0.5 nM	
JPU-G11 (VHH, form of the ELISAs; source: pET-32 vector, thioredoxin fusion, purified) VHH: QLQLVETGGGLVQPGGSLRLACVASESVFEMYTVAWYRQAPGKQRELVAGITDEGRTNYADFVKGRFTISRDNSKKTVHLQMDNLNPEDTAVYYCKLEHDLGYYDYWGQGTQVTVSS		EC50 [1]: 1 nM and 0.5 nM
